Assay results published in publication PMC12096693 (Microbial Cell Factories, 2025).
Values belong to the molecule of their own block, whether it stands above or below them.

What was measured:
CL2 = settings: pH 7, 2 mM PLP
purified protein = substrate: NCCCC[C@H](N)C(=O)O; experiment: purified protein; settings: pH 7, 2 mM PLP

Km (CL2): 22.2 ± 5.73 mM
Molecule: NCCCC[C@H](N)C(=O)O [L-lysine]

B1: LdcC (Escherichia coli K-12) (protein)
chain: MNIIAIMGPHGVFYKDEPIKELESALVAQGFQIIWPQNSVDLLKFIEHNPRICGVIFDWDEYSLDLCSDINQLNEYLPLYAFINTHSTMDVSVQDMRMALWFFEYALGQAEDIAIRMRQYTDEYLDNITPPFTKALFTYVKERKYTFCTPGHMGGTAYQKSPVGCLFYDFFGGNTLKADVSISVTELGSLLDHTGPHLEAEEYIARTFGAEQSYIVTNGTSTSNKIVGMYAAPSGSTLLIDRNCHKSLAHLLMMNDVVPVWLKPTRNALGILGGIPRREFTRDSIEEKVAATTQAQWPVHAVITNSTYDGLLYNTDWIKQTLDVPSIHFDSAWVPYTHFHPIYQGKSGMSGERVAGKVIFETQSTHKMLAALSQASLIHIKGEYDEEAFNEAFMMHTTTSPSYPIVASVETAAAMLRGNPGKRLINRSVERALHFRKEVQRLREESDGWFFDIWQPPQVDEAECWPVAPGEQWHGFNDADADHMFLDPVKVTILTPGMDEQGNMSEEGIPAALVAKFLDERGIVVEKTGPYNLLFLFSIGIDKTKAMGLLRGLTEFKRSYDLNLRIKNMLPDLYAEDPDFYRNMRIQDLAQGIHKLIRKHDLPGLMLRAFDTLPEMIMTPHQAWQRQIKGEVETIALEQLVGRVSANMILPYPPGVPLLMPGEMLTKESRTVLDFLLMLCSVGQHYPGFETDIHGAKQDEDGVYRVRVLKMAG
Km (purified protein): 18.46 ± 0.89 mM

B2: CadA (Escherichia coli K-12) (protein)
chain: MNVIAILNHMGVYFKEEPIRELHRALERLNFQIVYPNDRDDLLKLIENNARLCGVIFDWDKYNLELCEEISKMNENLPLYAFANTYSTLDVSLNDLRLQISFFEYALGAAEDIANKIKQTTDEYINTILPPLTKALFKYVREGKYTFCTPGHMGGTAFQKSPVGSLFYDFFGPNTMKSDISISVSELGSLLDHSGPHKEAEQYIARVFNADRSYMVTNGTSTANKIVGMYSAPAGSTILIDRNCHKSLTHLMMMSDVTPIYFRPTRNAYGILGGIPQSEFQHATIAKRVKETPNATWPVHAVITNSTYDGLLYNTDFIKKTLDVKSIHFDSAWVPYTNFSPIYEGKCGMSGGRVEGKVIYETQSTHKLLAAFSQASMIHVKGDVNEETFNEAYMMHTTTSPHYGIVASTETAAAMMKGNAGKRLINGSIERAIKFRKEIKRLRTESDGWFFDVWQPDHIDTTECWPLRSDSTWHGFKNIDNEHMYLDPIKVTLLTPGMEKDGTMSDFGIPASIVAKYLDEHGIVVEKTGPYNLLFLFSIGIDKTKALSLLRALTDFKRAFDLNLRVKNMLPSLYREDPEFYENMRIQELAQNIHKLIVHHNLPDLMYRAFEVLPTMVMTPYAAFQKELHGMTEEVYLDEMVGRINANMILPYPPGVPLVMPGEMITEESRPVLEFLQMLCEIGAHYPGFETDIHGAYRQADGRYTVKVLKEESKK
Km (purified protein): 29.23 ± 9.56 mM
